The results in this text go back to the DeepSol protein solubility set.

The nature of this data set: soluble on expression in E. coli; label from the status in PepcDB or PDB records.
In the case of “MTLSFTARWRDELPATYTALLPTPLKNARLIWYNDELAQQLAIPASLFDATNGAGVWGGETLLPGMSPVAQVYSGHQFGVWAGQLGDGRGILLGEQLLADGSTLDWHLKGAGLTPYSRMGDGRAVLRSTIRESLASEAMHYLGIPTTRALSIVTSDTPVQRETQETGAMLMRLAQSHMRFGHFEHFYYRREPEKVQQLADFAIRHYWPQWQDVAEKYALWFEEVAARTGRLIAEWQTVGFAHGVMNTDNMSILGLTIDYGPFGFLDDYDPGFIGNHSDHQGRYRFDNQPSVALWNLQRLAQTLTPFIEIDALNRALDRYQDALLTHYGQRMRQKLGFFTEQKDDNVLLNELFSLMAREGSDYTRTFRMLSHTEQQSASSPLRDTFIDRAAFDAWFDRYRARLRTEAVDDALRQQQMQRVNPAIVLRNWLAQRAIDAAEQGDMAELHRLHEVLRQPFTDRDDDYASRPPEWGKRLEVSCSSMAGDPLEHHHHHH”, the “soluble on expression in E. coli” value is on record as “not soluble”. The result for “MTLSSAGGSRSHRHNGGHSERDVEIRILKDKVRSLTKEKISLQKELEYYKNEITKLLSPPYIEAVVLEVIDDNRVVVKSSTGPNLIVNVAAGVDARSLKPGAIVALNNRGSTIVDVLPGRYDPLVKAMEVEERPKVFFKDVGGLEEQIREIYEAVVLPIKNPHLFRELGIDPPKGVLLHGPPGTGKTLLAKAVAGETEATFIRVVGSELVNKFIGEGARLVREIFRLAREKAPSILFIDEIDAIASKRVDIGTSGDREVQRTMLQLLAELDGFDPLDNVKVIAATNRLDLIDPAVLRPGRFDRIIEVPLPSLRGRLEILGIHTRKAKMAPDVDLEAIAKLTEGFSGADLKAVVVEAGYNAIRRGSRVITMDDMIKAVEKVKAALDKRGGGDPFIRAQQKSGDDTIATVI” reads “soluble”; that for “MTLYPFPFTTKKQDAESMVDLFSLIKDYLVDQEDGIRHLITWFLNLVMEEEALLQVGAQRYERTDSRKASRNGYKPRTLLTKYGELELLKPQFREFPFETQVFEKYSRVEQAILSAVAESYLQGVSTRRVDKVMTALGVEGISASSVSRITKELDEKVSEFLSKPIEHEIPYLFIDATYLKVRDGLHYENKALFIVSGVRDDGFREILGARLADSEDSLFWQDLFEDLKERGLRGVKLIVSDGHKGIQKAVRESFIGSSWQMCHVHLIRQALKKVQKKKQKEVADKIKEALVDRHKYNDLIRELDKMEYKSAADTLENFQYDVMNYMQFPQSHWRKIRTTNMMERTNKEIKRRTKVVGAFPNQESVLRLVVSILIDINEDWITGNRYIVMEQ”, “not soluble”; that for “MTMEALLTPNNNNVPTSPVQTTYTSTQRYCSAPNVDIGESKTNLIINYLPQGMTQEEVRSLFTSIGEIESCKLVRDKVTGQSLGYGFVNYVREEDALRAVSSFNGLRLQNKTIKVSYARPSNDQIKGSNLYVSGIPKSMTLHELESIFRPFGQIITSRILSDNVTGLSKGVGFVRFDKKDEADVAIKTLNGSIPSGCSEQITVKFANNPASNNPKGLLSDLEAVQQAATTLVPLSTILGAPTLRATAGGIGPMHHAPITSKYRYSPMGAITAVSQPTATLPADYLTTSALLQMSQLNALAGLNPFATATAVPDFTASLIAHQQQQHAVAQQHAAQTASPPATNGQVAGLAAHAQLSALSASVAATLPPSDTAGYCLFVYNLSSDTDDTLLWQLFSQFGAIVNVKILRDLTQQCKGYAFVSMSNYTEAYNAMLSLNGTNLAGKTLQVVFKSSTPYRA”, “not soluble”. As to “MTMKCFLVILPLLVLYWIVSNRKRSGPLTNPHYKECLRKEWYTSPNVSSTEDFGSSYQISFADVQKTFKWLYLPEIDDPEIILTVMTRVDALARRNVLRKTWMTQRNRIKSIFVIGLGGDVDQKTKELVMSEAALYGDMVVTNIEDSFSKVAFKMLSMLLYGFSKVPSAKFIGKVDDDVLFYPNVLLSYMDNNTDTIHPQGSRMYGHITETRFITAGIPTGAECCEKFDSDSKCANYVTFLGGSFLMFTRQAVEGVLMASKHRKFHRIDDTMVTGYLADDVGAQRVNMTMMFMGYEPTKEPILFSSHIPLKDHEYLEQYRIQMADFKEQRLFTKYIGE”, the “soluble on expression in E. coli” value is “not soluble”.

“MTMMTATQALSVNPATGQTLAAMPWANAQEIEHALSLAASGFKKWKMTSVAQRAQTLRDIGQALRAHAEEMAQCITREMGKPIKQARAEVTKSAALCDWYAEHGPAMLNPEPTLVENQQAVIEYRPLGVILAIMPWNFPLWQVLRGAVPILLAGNSYLLKHAPNVTGCAQMIARILAEAGTPAGVYGWVNANNEGVSQMINDPRIAAVTVTGSVRAGAAIGAQAGAALKKCVLELGGSDPFIVLNDADLELAVKAAVAGRYQNTGQVCAAAKRFIVEEGIAQAFTDRFVAAAAALKMGDPLVEENDLGPMARFDLRDELHQQVQASVAEGARLLLGGEKIAGEGNYYAATVLADVTPDMTAFRQELFGPVAAITVAKDAAHALALANDSEFGLSATIFTADDTLAAEMAARLECGGVFINGYSASDARVAFGGVKKSGFGRELSHFGLHEFCNVQTVWKNRV”: the “soluble on expression in E. coli” value is reported as “soluble”.

“MTMSTILFDDIRPYCDQEAPAVIERLLSSAEYRYVFGKMMPDVKPQEFEQMMLRCKSTGEFKHIFGYTAVKAVSEKTTFSLSLSGRSRIPDNGAYIFISNHRDIVLDSAFLNLLLAEIDYNMPQIAIGDNLLVKPWIEDFVRLNGSFIVRRGINMRELIAQSQRLSAYIRHTITQTKDSIWIAQREGRAKDADDRTQSSVLKMLAMSGEDGGIKSLLNLNIVPLSLSYEYDPCDYLKAREMLSKQRDPLYKKPVGEDLLNMQTGIFGYKGRVHFAIGTPLRELAESIPADAPHARQFTEAGKLIDAEIHRRYRLYPGNYVAWDLLDGCDHAGSHYSKEEKETFVNYLSAQIAKVEMQDKDEEELKRLILIMYANPARAYYAAQDPTNV”: the “soluble on expression in E. coli” value was “not soluble”.

Consider “MTNDLIQLIDSLMVNIPAGEVVLRDDRIKKEWLVQIQPFLLAKYAVTMELYDAITNSTLNNFDKNHKPVVNISWNDAIAFCNVLSKKAGLKEYYSISDGGQIVKCNLDSNGYRLPSEAEWQYACKASTTGYTYGKLHDIAWYNENSNGEIHDVGQKEPNAWGLYDMLGNVWEWCYDLYDETVYGSYRIFRGGSWAETARGCGATCRRRSHPTFHIDDLGFRLARSILEHHHHHH”, for which the “soluble on expression in E. coli” value is listed as “soluble”.

Take “MTNDTNITNDKDINANIAHDDHFNDSIVNEVILEDMKKNRIDHMKYLPDMEVLDSDIMDRVVAEMDAYDYDQYTAADVRAALSHEYRTLEDFKALLSPAAQPFIEEIAQAAQLETRKHFGNSVCMFTPLYISNYCENYCIYCGFNCHNKINRAKLNASEIEKEMAAIAKTGLQEILILTGESKKMSDVEYIGEACKIARKYFKVIGLEVYPMNSDEYAYLHECGADYVTVFQETYNSDKYETLHLAGHKRIFPYRVNAQERALKGGMRGVGFAALLGLDDFRKDALATGYHAYLLQKKYPRAEIAFSCPRLCPIINNDRINPKDVHETQLLQVVCAYRLFMPFASITISTREVARVRDNLVNIAATKISAGVSTGIGSHVDDIEDKGDDQFEISDGRSVDEVFNALLDNGLQPVMSDYIYV”: the “soluble on expression in E. coli” value is “not soluble”. The entry for “MTNIERLERCADIMRRRWIYDPEAGLLFSRETKDVIKGSMTNKGHLVVTVHEGKFKVTLTYQKACYVYTYGAYDETLYEVHHVNLNKQDNRIKNIRLMPKEKHRRIHKNVRKLIRLGHTQWLQPQLIEQSL” is “not soluble”; for “MTNPLLTPFELPPFSKILPEHVVPAVTKALNDCRENVERVVAQGAPYTWENLCQPLAEVDDVLGRIFSPVSHLNSVKNSPELREAYEQTLPLLSEYSTWVGQHEGLYKAYRDLRDGDHYATLNTAQKKAVDNALRDFELSGIGLPKEKQQRYGEIATRLSELGNQYSNNVLDATMGWTKLVTDEAELAGMPESALAAAKAQAEAKELEGYLLTLDIPSYLPVMTYCDNQALREEMYRAYSTRASDQGPNAGKWDNSKVMEEILALRHELAQLLGFENYAFKSLATKMAENPQQVLDFLTDLAKRARPQGEKELAQLRAFAKAEFGVDELQPWDIAYYSEKQKQHLYSISDEQLRPYFPENKAVNGLFEVVKRIYGITAKERKDVDVWHPDVRFFELYDENNELRGSFYLDLYARENKRGGAWMDDCVGQMRKADGSLQKPVAYLTCNFNRPVNGKPALFTHDEVITLFHEFGHGLHHMLTRIETAGVSGISGVPWDAVELPSQFMENWCWEPEALAFISGHYETGEPLPKELLDKMLAAKNYQAALFILRQLEFGLFDFRLHAEFRPDQGAKILETLAEIKKLVAVVPSPSWGRFPHAFSHIFAGGYAAGYYSYLWADVLAADAFSRFEEEGIFNRETGQSFLDNILSRGGSEEPMDLFKRFRGREPQLDAMLEHYGIKG” it is “soluble”.
